Assay results published in patent publication US7041458B2, “Methods and reagents for determining protein S” (priority 1996, dated 2006).
Like-named read-outs stand apart in the source and are kept apart here. Bridges are numbered along the chain shown (N, C = ends). Where no end group is shown, it is not given here.

Key:
[1] = molecular target: T1, protein S-C4BP interaction (Homo sapiens, UniProt P20851); assay: Peptide inhibition of the protein S-C4BP interaction by surface plasmon resonance (BIAcore, immobilized C4BP); format: binding; conditions: for effect on binding of human protein S to C4BP (SPR response): 50 nM protein S, peptide up to 100 μM (2000-fold excess); for IC50: 50 nM human protein S, immobilized C4BP, read-out: half maximum inhibition, peptide concentration; for inhibition of the protein S-C4BP interaction (summary of the above tests): up to 2000-fold excess over protein S
T1 construct: C4BPβ was first isolated from human plasma in the form of the protein S-C4BP complex; from tissue; host or cells: human plasma
T1 sequence (P20851 18-252): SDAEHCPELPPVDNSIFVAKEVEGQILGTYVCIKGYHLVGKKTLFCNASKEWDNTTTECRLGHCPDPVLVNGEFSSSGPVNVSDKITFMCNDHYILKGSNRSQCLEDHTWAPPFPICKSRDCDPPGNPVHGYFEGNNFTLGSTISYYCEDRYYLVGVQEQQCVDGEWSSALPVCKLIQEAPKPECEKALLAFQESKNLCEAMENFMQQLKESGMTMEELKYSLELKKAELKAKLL
T1 sequence (P04003 49-597 partner): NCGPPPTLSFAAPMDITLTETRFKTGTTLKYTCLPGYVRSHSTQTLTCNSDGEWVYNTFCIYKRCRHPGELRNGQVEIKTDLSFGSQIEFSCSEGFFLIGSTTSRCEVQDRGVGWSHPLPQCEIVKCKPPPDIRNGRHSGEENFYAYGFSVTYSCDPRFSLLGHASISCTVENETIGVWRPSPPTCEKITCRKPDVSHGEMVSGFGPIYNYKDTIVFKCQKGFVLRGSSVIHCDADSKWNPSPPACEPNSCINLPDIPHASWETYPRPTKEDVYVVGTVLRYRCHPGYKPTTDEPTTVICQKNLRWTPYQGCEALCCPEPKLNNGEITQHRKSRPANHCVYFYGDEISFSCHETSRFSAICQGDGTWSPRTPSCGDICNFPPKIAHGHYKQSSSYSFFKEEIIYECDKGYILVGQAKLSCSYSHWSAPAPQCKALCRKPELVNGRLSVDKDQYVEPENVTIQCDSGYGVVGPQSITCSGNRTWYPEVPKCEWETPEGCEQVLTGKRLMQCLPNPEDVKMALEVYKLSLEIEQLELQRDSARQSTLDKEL
Description: E. Peptide Inhibition of the Protein S-C4BP Interaction According to Surface Plasmon Resonance Studies.
The surface plasmon resonance studies were performed using a BIAcore™ apparatus from Pharmacia Biosensor AB. Immobilization of C4BP to the dextran coated gold surface of a sensorchip was performed at a flow rate of 5 μl/min, using HC as flow buffer. Equal volumes of 0.1 M NHS and 0.1 M EDC were first mixed, whereafter 30 μl of the mixture was flown over the sensorchip surface to activate the carboxymethylated dextran. C4BP was then injected over the sensorchip (40 μl of a 60 μg/ml solution in 10 mM NaOAc at pH 4.75), whereafter unreacted NHS-ester groups were blocked by 15 μl 1M ethanolamine (pH 8.5). The system was regenerated by addition of 15 μl 0.1 M HCl, which removes all non-covalently bound molecules. The immobilized amount of C4BP was 8000 RU. Protein S association was monitored with 50 nM human protein S in HC buffer in a continuous flow of 1 μl per minute during 45 minutes. The ability of each peptide to inhibit the protein S binding was studied by following the association to C4BP for mixtures of protein S and peptide. In BIAcore™, the total amount of bound material is measured, and the peptides are 25-fold smaller than protein S, inhibition of protein S-binding by peptide binding will drastically lower the observed response during the association phase. The percent protein S bound, X, was calculated as X=(S−0.04Smax)/0.96Smax where S is the measured response and Smax is the response obtained in the absence of peptide.
As disclosed in Section E, the ability of the synthetic peptides to inhibit the binding of human protein S to C4BP was also studied using surface plasmon resonance on a BIA-core™ system.
(§1) In these figures, peptide inhibition of the protein S-C4BP interaction is shown as the amount of protein S bound (relative to the amount bound in the absence of peptide) versus concentration of the nine peptides listed in Table 1: (o) SL1, (♦) SL2, (□) SL3, (+) SL4, (⋄) SL5, (●) SL6, (▾) SL7, (Δ) BD4 & (∇) BD6. In FIG. 5A, the result from an equilibrium binding assay using immobilized C4BP in microtiter wells and radiolabelled human protein S is shown. […] In FIG. 5B, the result from surface plasmon resonance assay on a BIAcore™ sensorchip is shown. The amount of protein S bound, X, was calculated from the observed signal intensity, S, compared to the maximum signal intensity in the absence of peptide Smax, as X=(S−0.04)/0.96 Smax.

[2] = molecular target: T1, protein S-C4BP interaction; assay: Peptide inhibition of the protein S-C4BP interaction in microtiter plates (equilibrium binding assay, 125I-labelled protein S tracer, immobilized C4BP); conditions: displacement of 125I-labelled protein S from immobilized C4BP, EDTA buffer; read-out: half-maximum inhibition
Description: D. Peptide Inhibition of the Protein S-C4BP Interaction in Microtiter Plates.
(§2) Microtiter plates were coated with C4BP, 50 μl/well, 10 μg/ml in 0.075 M sodium carbonate buffer, pH 9.6. The plates were incubated over night at 4° C. and then washed with TBS, pH 7.5, containing 0.1% Tween 20. […] The wells were then washed and the amount of bound protein S detected using a γ-counter.
As disclosed in Section D, the synthetic peptides were tested for their ability to displace binding of a ^125I-labelled protein S tracer to immobilized C4BP (FIG. 5A).
as §1

C4BP [3] = molecular target: T2, C4BP (Homo sapiens, UniProt P20851); assay: Fluorescence polarization titration of peptides with C4BP (results not shown); format: binding; conditions: read-out: dissociation constant KD of the peptide-C4BP complex
T2 sequence (P20851 18-252): T1 sequence (P20851 18-252)
T2 sequence (P04003 49-597 partner): T1 sequence (P04003 49-597 partner)
Description: The difference in KD observed for the peptide and protein might in part be due to post translational modification of the protein.

C4BP [4] = molecular target: T2, C4BP; conditions: Ca2+-free; read-out: dissociation constant KD of the complex with C4BP; cited from earlier work
[5] = molecular target: T3, C4b-binding protein (C4BP), species containing the protein S binding β-chain, purified from human plasma (human, UniProt P04003 49-597; P20851 18-252); assay: SPR (BIAcore) competition: 50 nM human protein S mixed with peptide, flowed over immobilised C4BP (8000 RU), HC buffer; percent protein S bound calculated from the response
T3 construct: mature; Isolated from human plasma as the protein S-C4BP complex, dissociated in 3 M guanidine-HCl and purified further; predominantly C4BPβ, and a minor proportion lacking the β-chain may be present; Immobilised on microtiter wells or on a CM5 sensorchip; also called C4BPβ
T3 sequence (looked up) 1: T1 sequence (P04003 49-597 partner)
T3 sequence (looked up) 2: T1 sequence (P20851 18-252)
Description: The surface plasmon resonance studies were performed using a BIAcore™ apparatus from Pharmacia Biosensor AB. Immobilization of C4BP to the dextran coated gold surface of a sensorchip was performed at a flow rate of 5 μl/min, using HC as flow buffer. Equal volumes of 0.1 M NHS and 0.1 M EDC were first mixed, whereafter 30 μl of the mixture was flown over the sensorchip surface to activate the carboxymethylated dextran. C4BP was then injected over the sensorchip (40 μl of a 60 μg/ml solution in 10 mM NaOAc at pH 4.75), whereafter unreacted NHS-ester groups were blocked by 15 μl 1M ethanolamine (pH 8.5). […] Protein S association was monitored with 50 nM human protein S in HC buffer in a continuous flow of 1 μl per minute during 45 minutes. […] The percent protein S bound, X, was calculated as $$X=(S-0.04Smax)/0.96Smax$$
In these figures, peptide inhibition of the protein S-C4BP interaction is shown as the amount of protein S bound (relative to the amount bound in the absence of peptide) versus concentration of the nine peptides listed in Table 1: (o) SL1, (♦) SL2, (□) SL3, (+) SL4, (◊) SL5, (●) SL6, (▼) SL7, (Δ) BD4 & (▽) BD6. […] The amount of protein S bound, X, was calculated from the observed signal intensity, S, compared to the maximum signal intensity in the absence of peptide $Smax$, as $X=(S-0.04)/0.96\ Smax$.

[6] = molecular target: T3, C4b-binding protein (C4BP), species …; assay: competition, equilibrium binding in microtiter wells: peptide against a trace of 125I-labelled human protein S on immobilised C4BP, TBS with 10 mM EDTA, 4 °C overnight, gamma counting
Description: as §2
as §1, with “(◊)” for “(⋄)”, “(▼)” for “(▾)”, “(▽)” for “(∇)”, “$Smax$,” for “Smax,”, “$X=(S-0.04)/0.96\ Smax$.” for “X=(S−0.04)/0.96 Smax.”

[7] = molecular target: T3, C4b-binding protein (C4BP), species …; assay: unlabelled protein S competing with 125I-protein S tracer for immobilised C4BP in microtiter wells, EDTA buffer
Description: as §2
as §1, with “(◊)” for “(⋄)”, “(▼)” for “(▾)”, “(▽)” for “(∇)”, “$Smax$,” for “Smax,”, “$X=(S-0.04)/0.96\ Smax$.” for “X=(S−0.04)/0.96 Smax.”

Molecule: DKAMKAKVATYLGGLPDVPFSAT [SL4]
- effect on binding of human protein S to C4BP (SPR response) [1]: the same response was observed as with protein S alone

Molecule: EKGSYYPGSGIAQFHIDYNNVS [SL2]
- IC50 [2]: 100 to 200 µM
- IC50 [1]: 30 to 120 µM
- Kd (C4BP [3]): ≤ 1 µM

Molecule: KPENGLLETKVYFAGFPRK [SL1]
- effect on binding of human protein S to C4BP (SPR response) [1]: the same response was observed as with protein S alone

Molecule: LDGCIRSWNLMKQGASGIKEIIQEKQNKHCLVT (disulfide 4-30 (inferred)) [BD4, reference compound]
- effect on binding of human protein S to C4BP (SPR response) [1]: the same response was observed as with protein S alone
- inhibition of the protein S-C4BP interaction (summary of the above tests) [1]: gave no inhibitory effect
- inhibition of the protein S-C4BP interaction (summary of the above tests) ([1]; listed as 405–437): did not show any inhibitory effect

Molecule: LVTVEKGSYYPGSGIAQ [SL5]
- effect on binding of human protein S to C4BP (SPR response) [1]: the same response was observed as with protein S alone

Molecule: LVTVEKGSYYPGSGIAQFHIDYNNVSSAEGWHVN [SL7]
- IC50 [2]: 100 to 200 µM
- IC50 [1]: 30 to 120 µM
- Kd (C4BP [3]): ≤ 1 µM

Molecule: SDQQSHLEFRVNNLEKSTPLK [SL3]
- effect on binding of human protein S to C4BP (SPR response) [1]: the same response was observed as with protein S alone

Molecule: SGIAQFHIDYNNVSSAEGWHVN [SL6]
- IC50 [2]: 100 to 200 µM
- IC50 [1]: 30 to 120 µM
- Kd (C4BP [3]): ≤ 1 µM

Molecule: YNGCMEVNINGVQLDLDEAISKHNDIRAHSCPSV (disulfide 4-31 (inferred)) [BD6, reference compound]
- effect on binding of human protein S to C4BP (SPR response) [1]: the same response was observed as with protein S alone
- inhibition of the protein S-C4BP interaction (summary of the above tests) [1]: gave no inhibitory effect
- inhibition of the protein S-C4BP interaction (summary of the above tests) ([1]; listed as 595–628): did not show any inhibitory effect

Molecule: plasma purified human protein S: plasma purified human protein S, unlabelled competitor of radiolabelled protein S
- Kd (C4BP [4]): 0.0065 µM

B1: SL6 synthetic peptide (protein S residues 447-468) (peptide)
peptide: SGIAQFHIDYNNVSSAEGWHVN
- IC50 (read off the curve) [5]: ~30 µM

B2: SL7 synthetic peptide (protein S residues 435-468) (peptide)
peptide: LVTVEKGSYYPGSGIAQFHIDYNNVSSAEGWHVN
- IC50 (read off the curve) [6]: ~90 µM

B3: SL2 synthetic peptide (protein S residues 439-460) (peptide)
peptide: EKGSYYPGSGIAQFHIDYNNVS
- IC50 (read off the curve) [6]: ~200 µM
- IC50 (read off the curve) [5]: ~40 µM

B4: plasma purified human protein S (other, UniProt P07225 42-676, looked up)
chain: ANSLLEETKQGNLERECIEELCNKEEAREVFENDPETDYFYPKYLVCLRSFQTGLFTAARQSTNAYPDLRSCVNAIPDQCSPLPCNEDGYMSCKDGKASFTCTCKPGWQGEKCEFDINECKDPSNINGGCSQICDNTPGSYHCSCKNGFVMLSNKKDCKDVDECSLKPSICGTAVCKNIPGDFECECPEGYRYNLKSKSCEDIDECSENMCAQLCVNYPGGYTCYCDGKKGFKLAQDQKSCEVVSVCLPLNLDTKYELLYLAEQFAGVVLYLKFRLPEISRFSAEFDFRTYDSEGVILYAESIDHSAWLLIALRGGKIEVQLKNEHTSKITTGGDVINNGLWNMVSVEELEHSISIKIAKEAVMDINKPGPLFKPENGLLETKVYFAGFPRKVESELIKPINPRLDGCIRSWNLMKQGASGIKEIIQEKQNKHCLVTVEKGSYYPGSGIAQFHIDYNNVSSAEGWHVNVTLNIRPSTGTGVMLALVSGNNTVPFAVSLVDSTSEKSQDILLSVENTVIYRIQALSLCSDQQSHLEFRVNRNNLELSTPLKIETISHEDLQRQLAVLDKAMKAKVATYLGGLPDVPFSATPVNAFYNGCMEVNINGVQLDLDEAISKHNDIRAHSCPSVWKKTKNS
modifications: 125I-labelled where used as tracer in the microtiter equilibrium assay
notes: mature; also called PS; free protein S
- IC50 [7]: ~2 µM
